What was measured:
[1] = target: human VEGF165 (human) (UniProt P15692); assay: direct binding ELISA, VEGF165 coated, anti-human IgG Fc-HRP detection
[2] = target: soluble integrin αvβ3
[3] = target: integrin αvβ3 expressed on CHO cells (CHO-αvβ3); assay: cell-based or functional assay

soluble integrin αvβ3, sequence (P06756 31-992, chain 1 of 2): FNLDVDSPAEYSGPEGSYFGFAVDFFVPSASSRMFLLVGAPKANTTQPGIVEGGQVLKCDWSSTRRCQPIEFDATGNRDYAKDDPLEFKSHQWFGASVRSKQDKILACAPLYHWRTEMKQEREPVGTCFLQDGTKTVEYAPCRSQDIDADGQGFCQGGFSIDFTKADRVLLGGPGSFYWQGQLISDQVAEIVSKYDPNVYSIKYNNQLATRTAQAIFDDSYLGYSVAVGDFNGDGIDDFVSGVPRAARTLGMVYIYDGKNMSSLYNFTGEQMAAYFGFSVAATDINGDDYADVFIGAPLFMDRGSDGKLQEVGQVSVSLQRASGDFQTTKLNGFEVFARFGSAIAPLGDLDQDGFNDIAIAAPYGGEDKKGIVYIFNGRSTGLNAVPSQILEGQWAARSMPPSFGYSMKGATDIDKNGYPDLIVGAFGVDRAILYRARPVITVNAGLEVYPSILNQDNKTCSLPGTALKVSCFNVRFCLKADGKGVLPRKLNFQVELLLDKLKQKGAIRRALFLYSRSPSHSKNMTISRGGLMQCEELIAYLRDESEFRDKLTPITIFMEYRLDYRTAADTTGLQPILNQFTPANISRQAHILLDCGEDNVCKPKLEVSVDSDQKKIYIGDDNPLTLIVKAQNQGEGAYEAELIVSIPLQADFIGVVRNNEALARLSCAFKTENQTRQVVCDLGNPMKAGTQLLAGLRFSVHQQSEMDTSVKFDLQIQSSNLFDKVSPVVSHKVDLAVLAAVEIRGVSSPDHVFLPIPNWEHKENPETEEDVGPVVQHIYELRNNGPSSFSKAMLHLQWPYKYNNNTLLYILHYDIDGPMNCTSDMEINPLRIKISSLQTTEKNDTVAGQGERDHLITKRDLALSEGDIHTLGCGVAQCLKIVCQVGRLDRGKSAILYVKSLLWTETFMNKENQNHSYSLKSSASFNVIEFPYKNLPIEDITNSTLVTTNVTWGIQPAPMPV
soluble integrin αvβ3, sequence (P05106 27-718, chain 2 of 2, further chain): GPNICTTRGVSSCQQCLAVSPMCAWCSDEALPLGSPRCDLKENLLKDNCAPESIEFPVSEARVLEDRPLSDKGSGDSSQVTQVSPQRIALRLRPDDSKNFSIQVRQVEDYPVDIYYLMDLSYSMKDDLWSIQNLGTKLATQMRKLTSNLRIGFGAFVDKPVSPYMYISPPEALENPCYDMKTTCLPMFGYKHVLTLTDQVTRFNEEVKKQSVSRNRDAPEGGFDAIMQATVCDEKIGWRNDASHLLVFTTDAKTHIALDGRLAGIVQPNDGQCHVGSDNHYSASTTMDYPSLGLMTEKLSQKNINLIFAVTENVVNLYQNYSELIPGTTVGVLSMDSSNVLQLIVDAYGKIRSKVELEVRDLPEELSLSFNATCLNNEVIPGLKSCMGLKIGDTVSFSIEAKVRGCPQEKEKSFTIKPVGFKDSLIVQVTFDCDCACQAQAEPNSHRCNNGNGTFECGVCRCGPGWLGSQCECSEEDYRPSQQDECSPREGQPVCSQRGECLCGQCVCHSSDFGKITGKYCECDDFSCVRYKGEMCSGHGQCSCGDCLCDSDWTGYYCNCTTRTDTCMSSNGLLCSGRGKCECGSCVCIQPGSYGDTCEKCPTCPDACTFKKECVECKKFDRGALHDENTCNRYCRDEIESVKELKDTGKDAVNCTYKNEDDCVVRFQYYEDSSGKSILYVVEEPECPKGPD

## Positive Control 2 (aflibercept) (Fc fusion)
[1]
  EC50: 0.088 to 0.195 nM

## Positive Control 3 (wild type Rho, SEQ ID NO: 1) (from UniProt P30403 408-475) (ligand)
[2]
  IC50: 2.6 to 3.2 nM
[3]
  αvβ3, IC50 (nM), inhibition of CHO-αvβ3 cell adhesion to fibrinogen: 24.7 nM

— patent US20250051404A1
